Columns and labels:
[1] = target: T1, Rat ANG2 (rat, UniProt O35462 19-496, limits assumed); experiment: SPR, Biacore T200, antibody captured on Protein G chip
T1 sequence (looked up): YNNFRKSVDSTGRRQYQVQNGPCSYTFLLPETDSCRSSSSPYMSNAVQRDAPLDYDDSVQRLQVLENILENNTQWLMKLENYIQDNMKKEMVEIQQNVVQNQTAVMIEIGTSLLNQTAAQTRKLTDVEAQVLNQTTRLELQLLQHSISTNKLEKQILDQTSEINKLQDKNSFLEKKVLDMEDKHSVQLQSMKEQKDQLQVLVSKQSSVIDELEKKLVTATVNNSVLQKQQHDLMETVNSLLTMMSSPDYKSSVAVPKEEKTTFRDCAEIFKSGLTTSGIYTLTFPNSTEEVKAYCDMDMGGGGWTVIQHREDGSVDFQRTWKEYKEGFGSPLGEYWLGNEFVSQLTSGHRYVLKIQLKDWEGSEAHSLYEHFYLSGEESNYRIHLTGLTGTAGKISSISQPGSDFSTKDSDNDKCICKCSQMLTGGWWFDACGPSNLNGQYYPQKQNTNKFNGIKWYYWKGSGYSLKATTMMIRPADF
Method: (§1) The antibody was diluted to 1 μg/mL and was captured onto channel 2 for 30 s, and channel 1 was the blank control channel. The gradient-diluted Human ANG2, Rhesus ANG2, Rabbit ANG2, Rat ANG2 and Mouse ANG2 were sequentially injected into channels 1 and 2 of the chip, from low to high concentrations (0-32 nM), at a flow rate of 30 μL/min, with one concentration per cycle, and with 180 s association time and 1200 s dissociation time at 25° C. Finally, the chip was regenerated using Glycine pH 1.5 at 30 μL/min for 30 s. The affinity assay was repeated three times.

[2] = target: T2, Mouse ANG2 (mouse, UniProt O35608 19-496, limits assumed); experiment: as above
T2 sequence (looked up): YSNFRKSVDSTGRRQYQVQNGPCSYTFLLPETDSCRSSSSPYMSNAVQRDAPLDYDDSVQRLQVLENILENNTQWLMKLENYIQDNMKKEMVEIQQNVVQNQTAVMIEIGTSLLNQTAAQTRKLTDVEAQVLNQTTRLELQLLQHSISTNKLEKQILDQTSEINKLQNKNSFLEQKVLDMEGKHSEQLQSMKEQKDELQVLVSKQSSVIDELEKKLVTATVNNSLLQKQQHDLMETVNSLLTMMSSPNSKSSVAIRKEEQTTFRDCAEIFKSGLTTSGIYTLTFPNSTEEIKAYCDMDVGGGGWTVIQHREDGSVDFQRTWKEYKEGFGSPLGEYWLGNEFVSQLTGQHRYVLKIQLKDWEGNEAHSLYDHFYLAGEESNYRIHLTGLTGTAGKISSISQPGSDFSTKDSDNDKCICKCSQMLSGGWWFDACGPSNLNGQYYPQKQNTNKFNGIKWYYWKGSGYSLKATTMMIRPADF
Method: as §1

[3] = target: T3, Rhesus ANG2 (rhesus, UniProt F6QXG0 19-496); experiment: SPR, Biacore T200, mean of three experiments
T3 sequence: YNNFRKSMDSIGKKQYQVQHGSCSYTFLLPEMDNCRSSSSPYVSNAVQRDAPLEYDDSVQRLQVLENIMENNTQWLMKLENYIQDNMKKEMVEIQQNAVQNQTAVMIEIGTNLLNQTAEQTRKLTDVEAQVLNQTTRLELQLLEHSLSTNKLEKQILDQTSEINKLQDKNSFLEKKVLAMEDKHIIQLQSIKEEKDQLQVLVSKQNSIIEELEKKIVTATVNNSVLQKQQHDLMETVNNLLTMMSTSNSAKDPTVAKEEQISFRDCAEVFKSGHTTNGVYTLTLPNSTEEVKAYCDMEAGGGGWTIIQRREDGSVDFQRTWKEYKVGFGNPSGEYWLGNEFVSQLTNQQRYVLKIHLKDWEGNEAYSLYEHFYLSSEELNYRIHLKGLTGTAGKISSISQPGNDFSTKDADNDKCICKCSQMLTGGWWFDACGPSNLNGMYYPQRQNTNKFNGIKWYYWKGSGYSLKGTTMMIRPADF
Method: as §1

[4] = target: T4, human Ang2 (human, UniProt O15123 19-496, limits assumed); experiment: SPR, Biacore T200, mean of three experiments
T4 construct: also called hAng2; h Ang2
T4 sequence: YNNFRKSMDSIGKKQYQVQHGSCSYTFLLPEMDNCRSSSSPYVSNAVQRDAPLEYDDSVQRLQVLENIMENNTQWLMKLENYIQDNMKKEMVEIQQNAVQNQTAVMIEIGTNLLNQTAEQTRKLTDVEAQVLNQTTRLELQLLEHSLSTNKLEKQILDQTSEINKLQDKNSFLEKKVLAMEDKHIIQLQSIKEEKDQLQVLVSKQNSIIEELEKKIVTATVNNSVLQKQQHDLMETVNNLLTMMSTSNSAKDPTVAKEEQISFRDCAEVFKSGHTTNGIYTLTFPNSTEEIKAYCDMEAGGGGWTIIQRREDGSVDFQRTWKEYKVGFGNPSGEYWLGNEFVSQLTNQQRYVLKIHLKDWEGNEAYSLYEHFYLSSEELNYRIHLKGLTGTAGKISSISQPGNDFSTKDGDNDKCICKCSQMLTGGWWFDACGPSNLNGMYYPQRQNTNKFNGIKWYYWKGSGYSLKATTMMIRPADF
Method: as §1

[5] = target: T5, hAng2-Fc protein (Sino Biological, Cat No.: 10691-H02H) (human, UniProt O15123 19-496); experiment: cell-based or functional assay
T5 sequence: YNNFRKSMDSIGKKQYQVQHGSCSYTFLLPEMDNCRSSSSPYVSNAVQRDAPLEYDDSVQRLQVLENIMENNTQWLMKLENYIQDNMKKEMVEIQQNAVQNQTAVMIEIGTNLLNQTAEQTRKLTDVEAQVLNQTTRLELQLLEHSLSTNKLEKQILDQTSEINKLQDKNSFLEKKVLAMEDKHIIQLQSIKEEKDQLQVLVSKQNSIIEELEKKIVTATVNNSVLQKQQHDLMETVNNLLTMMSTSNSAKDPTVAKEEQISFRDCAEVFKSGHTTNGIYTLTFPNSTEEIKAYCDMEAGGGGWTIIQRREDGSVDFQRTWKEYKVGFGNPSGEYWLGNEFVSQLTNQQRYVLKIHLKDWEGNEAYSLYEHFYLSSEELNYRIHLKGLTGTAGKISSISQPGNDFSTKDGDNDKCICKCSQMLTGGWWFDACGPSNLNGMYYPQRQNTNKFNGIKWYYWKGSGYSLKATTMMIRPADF

[6] = target: T6, Rabbit ANG2 (rabbit, UniProt G1T9B3 19-496); experiment: SPR, Biacore T200, antibody captured on Protein G chip, experiment 3
T6 sequence: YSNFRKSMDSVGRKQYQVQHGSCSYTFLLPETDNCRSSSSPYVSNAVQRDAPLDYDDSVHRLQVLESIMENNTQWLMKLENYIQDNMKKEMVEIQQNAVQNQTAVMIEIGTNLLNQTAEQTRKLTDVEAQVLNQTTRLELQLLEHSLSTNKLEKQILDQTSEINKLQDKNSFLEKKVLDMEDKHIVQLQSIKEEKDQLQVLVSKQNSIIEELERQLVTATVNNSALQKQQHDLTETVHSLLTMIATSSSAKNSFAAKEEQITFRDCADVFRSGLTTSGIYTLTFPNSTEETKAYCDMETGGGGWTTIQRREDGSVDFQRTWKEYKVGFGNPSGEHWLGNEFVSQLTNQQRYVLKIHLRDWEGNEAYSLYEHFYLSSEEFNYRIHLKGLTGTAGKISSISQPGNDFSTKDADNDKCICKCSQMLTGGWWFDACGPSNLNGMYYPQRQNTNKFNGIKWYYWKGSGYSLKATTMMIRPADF
Method: as §1

B1: humanized antibody hz81H10.4 (antibody, human IgG1, kappa, V domains shown)
VH: EVQLVESGGGLVKPGGSLRLSCAASGFTFSNYWMNWVRQAPGKGLEWVAEIRLKSNNYATHYAESVKGRFTISRDVSKNTVYLQMNSLKTEDTAVYYCTDTAPFAYWGQGTLVTVSS
VL: DIQMTQSPSSLSASVGDRVTITCKASQDVGTDVAWYQQKPGKAPKLLIYWASTRHTGVPSRFSGSGSGTDFTLTISSLQPEDFATYYCQQYSSYPLTFGGGTKVEIKR
notes: also called IBI335
[1]
  binding result: no binding (tested: 0-32 nM)
[2]
  binding result: no binding (tested: 0-32 nM)
[3]
  Kd: 0.146 nM
[4]
  Kd: 0.0457 nM
[5]
  IC50 (read off the curve): ~5 nM
[6]
  Kd: 0.446 nM
  koff: 0.000144 s⁻¹
  kon: 322000 M⁻¹ s⁻¹
